Source: patent US20230131056A1 (Stanford University, published 2023)
Residue numbers refer to the chain shown, from its start. Like-named read-outs stand apart in the source and are kept apart here. One block for each binder: values may come before it.

Tests used:
PD-L2-Fc (human PD-L2) [1] = molecular target: T1, PD-L2-Fc (human PD-L2) (human, UniProt Q9BQ51 20-220, limits assumed); assay: yeast surface display, flow cytometry titration with soluble PDL2 (cell binding A.U. against PDL2 concentration)
T1 construct: not shown: Fc portion
T1 sequence (looked up): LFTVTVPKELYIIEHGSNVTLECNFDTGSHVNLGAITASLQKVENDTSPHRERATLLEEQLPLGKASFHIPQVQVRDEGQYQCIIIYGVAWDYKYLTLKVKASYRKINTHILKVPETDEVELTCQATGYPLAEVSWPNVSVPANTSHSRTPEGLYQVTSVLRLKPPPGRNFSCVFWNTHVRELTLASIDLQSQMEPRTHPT

PD-L2-Fc (human PD-L2) [2] = molecular target: T1, PD-L2-Fc (human PD-L2); assay: yeast surface display, flow cytometry titration with soluble PDL2
PD-L2-Fc (human PD-L2) [3] = molecular target: T1, PD-L2-Fc (human PD-L2); assay: yeast surface display binding assay for PDL2 (summary list)
PDL1-Fc (human PD-L1) [4] = molecular target: T2, PDL1-Fc (human PD-L1) (human, UniProt Q9NZQ7 19-238, limits assumed); assay: yeast surface display, flow cytometry titration with soluble PDL1 (cell binding A.U. against PDL1 concentration)
T2 construct: not shown: Fc portion
T2 sequence (Q9NZQ7 19-238 limits assumed): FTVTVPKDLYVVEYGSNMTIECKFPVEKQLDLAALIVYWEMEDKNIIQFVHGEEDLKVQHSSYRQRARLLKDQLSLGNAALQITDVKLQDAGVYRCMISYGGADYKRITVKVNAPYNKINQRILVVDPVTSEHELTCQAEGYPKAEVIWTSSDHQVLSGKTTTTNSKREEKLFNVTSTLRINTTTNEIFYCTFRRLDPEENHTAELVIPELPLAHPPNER

PDL1-Fc (human PD-L1) [5] = molecular target: T2, PDL1-Fc (human PD-L1); assay: yeast surface display binding assay for PDL1 (summary list)
PD-L2-Fc (human PD-L2) [6] = molecular target: T1, PD-L2-Fc (human PD-L2); assay: yeast surface display, flow cytometry titration with soluble PDL2; remark: listed apart in the source
PD-L2-Fc (human PD-L2) [7] = molecular target: T1, PD-L2-Fc (human PD-L2); assay: yeast surface display, flow cytometry titration with soluble PDL2 (cell binding A.U. against PDL2 concentration); remark: listed apart in the source
PD-L2-Fc (human PD-L2) [8] = molecular target: T1, PD-L2-Fc (human PD-L2); assay: as above; remark: listed apart in the source
PD-L2-Fc (human PD-L2) [9] = molecular target: T1, PD-L2-Fc (human PD-L2); assay: yeast surface display, flow cytometry titration with soluble PDL2; remark: listed apart in the source
PDL1-Fc (human PD-L1) [10] = molecular target: T2, PDL1-Fc (human PD-L1); assay: yeast surface display, flow cytometry titration with soluble PDL1
PDL1-Fc (human PD-L1) [11] = molecular target: T2, PDL1-Fc (human PD-L1); assay: yeast surface display, flow cytometry titration with soluble PDL1 (cell binding A.U. against PDL1 concentration); remark: listed apart in the source
PDL1-Fc (human PD-L1) [12] = molecular target: T2, PDL1-Fc (human PD-L1); assay: as above; remark: listed apart in the source
PD-L2-Fc (human PD-L2) [13] = molecular target: T1, PD-L2-Fc (human PD-L2); assay: yeast surface display, flow cytometry titration with soluble PDL2; remark: listed apart in the source
PD-L2-Fc (human PD-L2) [14] = molecular target: T1, PD-L2-Fc (human PD-L2); assay: yeast surface display, flow cytometry titration with soluble PDL2 (cell binding A.U. against PDL2 concentration); remark: listed apart in the source
PD-L2-Fc (human PD-L2) [15] = molecular target: T1, PD-L2-Fc (human PD-L2); assay: as above; remark: listed apart in the source
PDL1-Fc (human PD-L1) [16] = molecular target: T2, PDL1-Fc (human PD-L1); assay: yeast surface display, flow cytometry titration with soluble PDL1 (cell binding A.U. against PDL1 concentration); remark: listed apart in the source
PDL1-Fc (human PD-L1) [17] = molecular target: T2, PDL1-Fc (human PD-L1); assay: yeast surface display, flow cytometry titration with soluble PDL1; remark: listed apart in the source
PD-L2-Fc (human PD-L2) [18] = molecular target: T1, PD-L2-Fc (human PD-L2); assay: yeast surface display, flow cytometry titration with soluble PDL2 (cell binding A.U. against PDL2 concentration); remark: listed apart in the source
PDL1-Fc (human PD-L1) [19] = molecular target: T2, PDL1-Fc (human PD-L1); assay: yeast surface display, flow cytometry titration with soluble PDL1 (cell binding A.U. against PDL1 concentration); remark: listed apart in the source
PD-L2-Fc (human PD-L2) [20] = molecular target: T1, PD-L2-Fc (human PD-L2); assay: yeast surface display, flow cytometry titration with soluble PDL2; remark: listed apart in the source

- Kd (PD-L2-Fc (human PD-L2) [1]): 1.1 nM
- EC50 (read off the curve) (PD-L2-Fc (human PD-L2) [2]): ~1 nM
- Kd (PD-L2-Fc (human PD-L2) [3]): 1.1 nM
B1: Clone #3 (128-6 mutations, yeast displayed sPD-1 mutant) (receptor)
chain: LDSPDRPWNPPTFSPALLVVTEGDNATFTCSFSNTSESFVLNWYRMSPSNQTDKLAAFPEDRGQLGQDCRFRVTQLPNGRDFHMSVVRARRNDSGTYLCSAIVLAPKIQIKESLRVELRVTERRAEVPTAHPSPSPRPAGQFQTLV

- Kd (PDL1-Fc (human PD-L1) [4]): 0.03 nM
- Kd (PD-L2-Fc (human PD-L2) [3]): 1.4 nM
- Kd (PDL1-Fc (human PD-L1) [5]): 0.03 nM
- EC50 (read off the curve) (PD-L2-Fc (human PD-L2) [6]): ~1 nM
- Kd (PD-L2-Fc (human PD-L2) [7]): 1.4 nM
B2: Clone #1 (121-5 mutations, yeast displayed sPD-1 mutant) (receptor)
chain: B1 chain with G63S

- Kd (PD-L2-Fc (human PD-L2) [8]): 4.1 nM
- EC50 (read off the curve) (PD-L2-Fc (human PD-L2) [9]): ~4 nM
- Kd (PD-L2-Fc (human PD-L2) [3]): 4.1 nM
- EC50 (read off the curve) (PDL1-Fc (human PD-L1) [10]): ~0.8 nM
- Kd (PDL1-Fc (human PD-L1) [11]): 0.8 nM
- Kd (PDL1-Fc (human PD-L1) [5]): 0.8 nM
B3: Clone #5 (62-3 mutations, yeast displayed sPD-1 mutant) (receptor)
chain: B1 chain with G63S, L65P, V116A

- Kd (PDL1-Fc (human PD-L1) [12]): 0.08 nM
- EC50 (read off the curve) (PD-L2-Fc (human PD-L2) [13]): ~0.9 nM
- Kd (PD-L2-Fc (human PD-L2) [14]): 0.87 nM
- Kd (PD-L2-Fc (human PD-L2) [3]): 0.87 nM
- Kd (PDL1-Fc (human PD-L1) [5]): 0.08 nM
B4: Clone #4 (100-4 mutations, yeast displayed sPD-1 mutant) (receptor)
chain: B1 chain with G63S, L65P

- Kd (PD-L2-Fc (human PD-L2) [3]): 0.11 nM
- Kd (PDL1-Fc (human PD-L1) [5]): 0.12 nM
- Kd (PD-L2-Fc (human PD-L2) [15]): 0.11 nM
- Kd (PDL1-Fc (human PD-L1) [16]): 0.12 nM
B5: Clone #2 (120-5 mutations, yeast displayed sPD-1 mutant) (receptor)
chain: B1 chain with L65P

- EC50 (read off the curve) (PDL1-Fc (human PD-L1) [17]): ~0.4 nM
- Kd (PD-L2-Fc (human PD-L2) [18]): 2.6 nM
- Kd (PD-L2-Fc (human PD-L2) [3]): 2.6 nM
- Kd (PDL1-Fc (human PD-L1) [5]): 0.44 nM
- Kd (PDL1-Fc (human PD-L1) [19]): 0.44 nM
- EC50 (read off the curve) (PD-L2-Fc (human PD-L2) [20]): ~3 nM
B6: original mutant sPD-1 (7 mutations, yeast displayed) (receptor)
chain: B1 chain with S38G
notes: also called initial Mutant PD-1 clone; 2-7 mutations
